B1: Actin nucleation-promoting factor WAS (Homo sapiens), P42768 (parent)
chain: MSGGPMGGRPGGRGAPAVQQNIPSTLLQDHENQRLFEMLGRKCLTLATAVVQLYLALPPGAEHWTKEHCGAVCFVKDNPQKSYFIRLYGLQAGRLLWEQELYSQLVYSTPTPFFHTFAGDDCQAGLNFADEDEAQAFRALVQEKIQKRNQRQSGDRRQLPPPPTPANEERRGGLPPLPLHPGGDQGGPPVGPLSLGLATVDIQNPDITSSRYRGLPAPGPSPADKKRSGKKKISKADIGAPSGFKHVSHVGWDPQNGFDVNNLDPDLRSLFSRAGISEAQLTDAETSKLIYDFIEDQGGLEAVRQEMRRQEPLPPPPPPSRGGNQLPRPPIVGGNKGRSGPLPPVPLGIAPPPPTPRGPPPPGRGGPPPPPPPATGRSGPLPPPPPGAGGPPMPPPPPPPPPPPSSGNGPAPPPLPPALVPAGGLAPGGGRGALLDQIRQGIQLNKTPGAPESSALQPPPQSSEGLVGALMHVMQKRSRAIHSSDEGEDQAGDEDEDDEWDD
B2: DNA mismatch repair protein Mlh1 (Homo sapiens), P40692 (parent)
chain: MSFVAGVIRRLDETVVNRIAAGEVIQRPANAIKEMIENCLDAKSTSIQVIVKEGGLKLIQIQDNGTGIRKEDLDIVCERFTTSKLQSFEDLASISTYGFRGEALASISHVAHVTITTKTADGKCAYRASYSDGKLKAPPKPCAGNQGTQITVEDLFYNIATRRKALKNPSEEYGKILEVVGRYSVHNAGISFSVKKQGETVADVRTLPNASTVDNIRSIFGNAVSRELIEIGCEDKTLAFKMNGYISNANYSVKKCIFLLFINHRLVESTSLRKAIETVYAAYLPKNTHPFLYLSLEISPQNVDVNVHPTKHEVHFLHEESILERVQQHIESKLLGSNSSRMYFTQTLLPGLAGPSGEMVKSTTSLTSSSTSGSSDKVYAHQMVRTDSREQKLDAFLQPLSKPLSSQPQAIVTEDKTDISSGRARQQDEEMLELPAPAEVAAKNQSLEGDTTKGTSEMSEKRGPTSSNPRKRHREDSDVEMVEDDSRKEMTAACTPRRRIINLTSVLSLQEEINEQGHEVLREMLHNHSFVGCVNPQWALAQHQTKLYLLNTTKLSEELFYQILIYDFANFGVLRLSEPAPLFDLAMLALDSPESGWTEEDGPKEGLAEYIVEFLKKKAEMLADYFSLEIDEEGNLIGLPLLIDNYVPPLEGLPIFILRLATEVNWDEEKECFESLSKECAMFYSIRKQYISEESTLSGQQSEVPGSIPNSWKWTVEHIVYKALRSHILPPKHFTEDGNILQLANLPDLYKVFERC
partner: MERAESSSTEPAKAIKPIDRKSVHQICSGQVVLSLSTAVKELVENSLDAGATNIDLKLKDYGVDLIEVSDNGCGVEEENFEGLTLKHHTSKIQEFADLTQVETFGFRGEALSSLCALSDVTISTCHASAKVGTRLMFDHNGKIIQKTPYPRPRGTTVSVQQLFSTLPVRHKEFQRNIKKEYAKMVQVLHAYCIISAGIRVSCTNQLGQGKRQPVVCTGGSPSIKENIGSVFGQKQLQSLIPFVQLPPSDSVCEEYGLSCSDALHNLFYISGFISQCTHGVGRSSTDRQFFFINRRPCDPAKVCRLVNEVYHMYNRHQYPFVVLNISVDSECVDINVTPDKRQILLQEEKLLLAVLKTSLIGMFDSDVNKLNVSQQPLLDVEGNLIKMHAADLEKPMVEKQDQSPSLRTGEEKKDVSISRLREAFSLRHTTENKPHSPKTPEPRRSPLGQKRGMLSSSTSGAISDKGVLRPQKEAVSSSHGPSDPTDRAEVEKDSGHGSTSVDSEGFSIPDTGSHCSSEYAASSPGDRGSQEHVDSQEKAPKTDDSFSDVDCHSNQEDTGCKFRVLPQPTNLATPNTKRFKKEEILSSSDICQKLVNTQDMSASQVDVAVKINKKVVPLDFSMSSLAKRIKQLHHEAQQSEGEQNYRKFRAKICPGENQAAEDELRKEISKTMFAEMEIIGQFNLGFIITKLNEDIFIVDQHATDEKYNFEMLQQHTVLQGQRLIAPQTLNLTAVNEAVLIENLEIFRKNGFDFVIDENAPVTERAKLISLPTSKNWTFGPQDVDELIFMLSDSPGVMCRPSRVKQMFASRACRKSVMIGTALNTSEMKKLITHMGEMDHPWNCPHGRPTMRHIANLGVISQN
B3: Tumor protein 63 (Homo sapiens), Q9H3D4 (parent)
chain: MNFETSRCATLQYCPDPYIQRFVETPAHFSWKESYYRSTMSQSTQTNEFLSPEVFQHIWDFLEQPICSVQPIDLNFVDEPSEDGATNKIEISMDCIRMQDSDLSDPMWPQYTNLGLLNSMDQQIQNGSSSTSPYNTDHAQNSVTAPSPYAQPSSTFDALSPSPAIPSNTDYPGPHSFDVSFQQSSTAKSATWTYSTELKKLYCQIAKTCPIQIKVMTPPPQGAVIRAMPVYKKAEHVTEVVKRCPNHELSREFNEGQIAPPSHLIRVEGNSHAQYVEDPITGRQSVLVPYEPPQVGTEFTTVLYNFMCNSSCVGGMNRRPILIIVTLETRDGQVLGRRCFEARICACPGRDRKADEDSIRKQQVSDSTKNGDGTKRPFRQNTHGIQMTSIKKRRSPDDELLYLPVRGRETYEMLLKIKESLELMQYLPQHTIETYRQQQQQQHQHLLQKQTSIQSPSSYGNSSPPLNKMNSMNKLPSVSQLINPQQRNALTPTTIPDGMGANIPMMGTHMPMAGDMNGLSPTQALPPPLSMPSTSHCTPPPPYPTDCSIVSFLARLGCSSCLDYFTTQGLTTIYQIEHYSMDDLASLKIPEQFRHAIWKGILDHRQLHEFSSPSHLLRTPSSASTVSVGSSETRGERVIDAVRFTLRQTISFPPRDEWNDFNFDMDARRNKQQRIKEEGE
partner: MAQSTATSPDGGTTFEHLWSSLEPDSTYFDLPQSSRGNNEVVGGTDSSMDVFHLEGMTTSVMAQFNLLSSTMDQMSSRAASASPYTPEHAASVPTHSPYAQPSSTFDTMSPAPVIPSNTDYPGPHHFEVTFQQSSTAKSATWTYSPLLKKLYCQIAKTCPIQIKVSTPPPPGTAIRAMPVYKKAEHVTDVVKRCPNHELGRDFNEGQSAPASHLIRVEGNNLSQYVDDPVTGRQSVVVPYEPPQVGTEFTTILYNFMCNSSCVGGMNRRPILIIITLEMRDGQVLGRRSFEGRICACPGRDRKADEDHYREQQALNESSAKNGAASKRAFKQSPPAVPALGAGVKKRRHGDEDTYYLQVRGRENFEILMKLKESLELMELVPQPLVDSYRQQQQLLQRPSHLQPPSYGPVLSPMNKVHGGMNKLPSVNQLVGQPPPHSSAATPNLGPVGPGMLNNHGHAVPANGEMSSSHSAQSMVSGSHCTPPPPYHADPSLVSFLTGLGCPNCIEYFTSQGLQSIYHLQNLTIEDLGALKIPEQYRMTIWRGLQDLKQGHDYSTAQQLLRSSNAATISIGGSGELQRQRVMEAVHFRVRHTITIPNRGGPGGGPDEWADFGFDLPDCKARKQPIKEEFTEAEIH

Variants of: B1
Details: with cdc42_human CDC42, P60953
cdc42_human CDC42, P60953, sequence (P60953 whole entry, looked up): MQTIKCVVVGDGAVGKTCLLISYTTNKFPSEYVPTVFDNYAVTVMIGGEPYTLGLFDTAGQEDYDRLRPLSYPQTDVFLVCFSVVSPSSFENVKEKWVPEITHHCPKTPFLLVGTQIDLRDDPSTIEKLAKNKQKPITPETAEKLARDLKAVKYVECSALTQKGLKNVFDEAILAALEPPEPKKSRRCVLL

| Variant | effect of a mutation on the interaction |
| --- | --- |
| MSGGPMGGRPGGRGAPAVQQNIPSTLLQDHENQRLFEMLGRKCLTLATAVVQLYLALPPGAEHWTKEHCGAVCFVKDNPQKSYFIRLYGLQAGRLLWEQELYSQLVYSTPTPFFHTFAGDDCQAGLNFADKDEAQAFRALVQEKIQKRNQRQSGDRRQLPPPPTPANEERRGGLPPLPLHPGGDQGGPPVGPLSLGLATVDIQNPDITSSRYRGLPAPGPSPADKKRSGKKKISKADIGAPSGFKHVSHVGWDPQNGFDVNNLDPDLRSLFSRAGISEAQLTDAETSKLIYDFIEDQGGLEAVRQEMRRQEPLPPPPPPSRGGNQLPRPPIVGGNKGRSGPLPPVPLGIAPPPPTPRGPPPPGRGGPPPPPPPATGRSGPLPPPPPGAGGPPMPPPPPPPPPPPSSGNGPAPPPLPPALVPAGGLAPGGGRGALLDQIRQGIQLNKTPGAPESSALQPPPQSSEGLVGALMHVMQKRSRAIHSSDEGEDQAGDEDEDDEWDD [E131K] | with no effect |
| MSGGPMGGRPGGRGAPAVQQNIPSTLLQDHENQRLFEMLGRKCLTLATAVVQLYLALPPGAEHWTKEHCGAVCFVKDNPQKSYFIRLYGLQAGRLLWEQELYSQLVYSTPTPFFHTFAGDDCQAGLNFADEDEAQAFRALVQEKIQKRNQRQSGDRRQLPPPPTPANEERRGGLPPLPLHPGGDQGGPPVGPLSLGLATVDIQNPDITSSRYRGLPAPGPSPADKKRSGKKKISKADIGAPSGFKHVSHVGWDPQNGFDVNNLDPDLRSLFSRAGISEAQLTDAETSKLIYDFTEDQGGLEAVRQEMRRQEPLPPPPPPSRGGNQLPRPPIVGGNKGRSGPLPPVPLGIAPPPPTPRGPPPPGRGGPPPPPPPATGRSGPLPPPPPGAGGPPMPPPPPPPPPPPSSGNGPAPPPLPPALVPAGGLAPGGGRGALLDQIRQGIQLNKTPGAPESSALQPPPQSSEGLVGALMHVMQKRSRAIHSSDEGEDQAGDEDEDDEWDD [I294T] | decreasing interaction strength |
| MSGGPMGGRPGGRGAPAVQQNIPSTLLQDHENQRLFEMLGGKCLTLATAVVQLYLALPPGAEHWTKEHCGAVCFVKDNPQKSYFIRLYGLQAGRLLWEQELYSQLVYSTPTPFFHTFAGDDCQAGLNFADEDEAQAFRALVQEKIQKRNQRQSGDRRQLPPPPTPANEERRGGLPPLPLHPGGDQGGPPVGPLSLGLATVDIQNPDITSSRYRGLPAPGPSPADKKRSGKKKISKADIGAPSGFKHVSHVGWDPQNGFDVNNLDPDLRSLFSRAGISEAQLTDAETSKLIYDFIEDQGGLEAVRQEMRRQEPLPPPPPPSRGGNQLPRPPIVGGNKGRSGPLPPVPLGIAPPPPTPRGPPPPGRGGPPPPPPPATGRSGPLPPPPPGAGGPPMPPPPPPPPPPPSSGNGPAPPPLPPALVPAGGLAPGGGRGALLDQIRQGIQLNKTPGAPESSALQPPPQSSEGLVGALMHVMQKRSRAIHSSDEGEDQAGDEDEDDEWDD [R41G] | with no effect |

Variants of: B2
Details: with pms2_human PMS2, P54278

| Variant | effect of a mutation on the interaction |
| --- | --- |
| L259S | with no effect |
| N338S | with no effect |
| H381Y | with no effect |
| I107R | disrupting interaction strength |
| Y293D | disrupting interaction strength |
| I68N | disrupting interaction strength |
| Q149H | with no effect |

Variants of: B3
Details: with p73_human TP73, O15350

| Variant | effect of a mutation on the interaction |
| --- | --- |
| I549T | decreasing interaction strength |
| F565L | decreasing interaction strength |
| S580P | decreasing interaction strength |
| R594P | decreasing interaction strength |
